The Human Domainome abundance scans (Beltran et al. 2025)

B1: Zinc finger homeobox protein 4, residues 2086 to 2141; numbered along this chain, Q86UP3 (parent)
chain: RPRTRITDDQLKILRAYFDINNSPSEEQIQEMAEKSGLSQKVIKHWFRNTLFKERQ

Variants of: B1
Assay: abundance fitness (aPCA) (normalised: wild type 0, dead -1); higher = more abundant; growth selection in yeast, the domain comes from the species named
Details: Homo sapiens

Abundance fitness: each site, then its substitutions
F18: Q 0.011, G -0.184, R -0.018, A -0.026, Y 0.033, C -0.179, M -0.043, N -0.268, E -0.305, S -0.142
S23: I -0.522, G -0.211, T -0.071, A 0.041, Q -0.011, M -0.019, H 0.187, K -0.009, D -0.131, R -0.127, C -0.004, N -0.004, L -0.07, P -0.003, E 0.089
N21: Y -0.156, W -0.111, C -0.09, P -0.494, M 0.203, T 0.009, K -0.187, D -0.028, A -0.031, Q -0.247, F -0.191, E 0.122, V -0.189, S -0.048, I -0.114, L -0.101, H -0.117, G -0.261
R5: V 0.022, W -0.184, N 0.184, G -0.037, Y 0.082, I 0.067, Q 0.183, K 0.191, T 0.182, E 0.163, D 0.198, M 0.16, C 0.136, F 0.058, P 0.172, L 0.207
L14: T -1.01, C -0.671, D -1.19, E -1, H -1, K -1.16, S -1.02, V -0.273, R -0.949, N -1.18, F -0.304, W -0.777, Y -1.22, A -0.865, I -0.439, Q -0.866
D19: R -0.009, S 0.142, N 0.07, K 0.082, H -0.333, Q 0.029, L 0.086, F -0.196, Y -0.001, T -0.104, E 0.054, I -0.061, G -0.089, V -0.071, C -0.072, A 0.011, M -0.033, P -0.149
A16: L -0.051, S 0.129, C -0.075, G 0.035, E 0.178, M 0.124, D -0.029, Q 0.03, H 0.108, V -0.211, P -0.028, T -0.124, Y -0.013, K -0.129, I -0.071, R 0.096, N 0.16
I6: G -0.381, Q -0.389, A -0.069, F 0.002, L 0.006, C -0.318, N -0.377, T -0.246, K -0.433, D -0.148, Y -0.047, S -0.245, P -0.103, H -0.271, M 0.369, V -0.04, W -0.553, E -0.18, R -0.596
D9: S 0.084, M -0.084, Q -0.083, A 0.059, Y -0.041, H 0.044, C -0.011, W -0.155, I -0.026, N 0.047, F 0.071, K -0.087, T 0.165, R -0.134, E -0.003, V -0.162, G -0.14, P -0.002, L -0.043
D8: C 0.046, A -0.051, F -0.056, S 0.023, K 0.012, N -0.28, V -0.015, Q 0.081, E 0.145, H -0.019, P 0.034, M 0.113, Y -0.238, G -0.004, L -0.127, R -0.183, T -0.172, W -0.092, I 0.036
